Data as given in patent US20120282173A1 (FORERUNNER PHARMA RESEARCH, published 2012).

Key:
[1] = target: T1, active-form HB-EGF protein (R&D Systems, Inc., 259-HE) (human, UniProt Q99075 63-148); test: cell-based or functional assay
[2] = target: proHB-EGF mutated at the protease cleavage site, expressed on Ba/F3 cells (HB-EGF_Ba/F3) (human) (UniProt Q99075); test: FACS, hybridoma culture supernatant on HB-EGF_Ba/F3 cells, EXP. 2 (no-mAb 6.9)
[3] = target: proHB-EGF mutated at the protease cleavage site, expressed on Ba/F3 cells (HB-EGF_Ba/F3) (human) (UniProt Q99075); test: FACS, hybridoma culture supernatant on HB-EGF_Ba/F3 cells, EXP. 1 (no-mAb 19.1)
[4] = target: T2, HB-EGF expressed on the cell membrane (proHB-EGF), from pMCN_HB-EGF in DG44 and SKOV-3 cells or intrinsic in … (human, UniProt Q99075 20-208); test: cell-based or functional assay
[5] = target: T2, HB-EGF expressed on the cell membrane …; test: FACS on HB-EGF_DG44 cells, FITC-labeled anti-human IgG, Geo-Mean against concentration; the text says ED50, about
[6] = target: T1, active-form HB-EGF protein (R&D …); test: ELISA on plate coated with 1 ug/mL HB-EGF protein (R&D 259-HE), AP-labeled anti-human IgG; the text says ED50, about

T2 sequence (Q99075 20-208 limits assumed): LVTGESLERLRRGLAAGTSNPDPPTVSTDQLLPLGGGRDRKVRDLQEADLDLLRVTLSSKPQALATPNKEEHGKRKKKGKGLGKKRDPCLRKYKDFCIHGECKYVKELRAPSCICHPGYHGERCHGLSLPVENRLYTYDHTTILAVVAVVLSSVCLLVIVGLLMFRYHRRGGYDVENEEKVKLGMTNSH
T1 sequence (Q99075 63-148 limits assumed): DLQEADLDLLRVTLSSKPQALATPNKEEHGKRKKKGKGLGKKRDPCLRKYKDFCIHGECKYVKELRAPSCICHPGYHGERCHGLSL

B1: HC-15 antibody (antibody, V domains shown)
VH: EVQLQQSGPELVKPGASVKISCKASGYSFTGYYMHWVKQSPEKRLEWIGEINPRTGITTYNQKFKAKATLTVDKSSSTAYMQLKSLTSEDSAVYYCARVGSSGPFTYWGQGTLVTVSA
VL: DIVMTQSPSSLSVSAGDKVTMSCKSSQSLLNSRNQKNYLAWYQQKPWQPPKLLIYGASTRESGVPDRFTGSGSGTDFTLTISSVQAEDLAVYYCQNDYSYPFTFGTGTKLEIK
EC50 of the growth-inhibiting effect on EGFR_Ba/F3 cells [1]: 3.8 nM
FACS (GEO-mean) [2]: 234 GEO-mean
FACS (GEO-mean) [3]: 594 GEO-mean

B2: saporin-labeled HC-15 antibody (HC-SAP) (antibody, V domains shown)
VH: B1 VH
VL: B1 VL
modifications: antibody labeled with an average of 2.4 saporin molecules; sites not stated
EC50 of cell death induction, ES-2 cells (WST-8) [4]: 0.09 nM
EC50 of cell death induction, MCAS cells (WST-8) [4]: 0.86 nM
EC50 of cell death induction, SKM-1 cells (WST-8) [4]: 0.02 nM
EC50 of cell death induction, THP-1 cells (WST-8) [4]: 0.01 nM
EC50 of cell death induction, U937 cells (WST-8) [4]: 0.33 nM

B3: chHC15, human chimeric antibody derived from HC15 antibody (antibody, human IgG1, kappa, V domains shown)
VH: B1 VH
VL: DIVMTQSPSSLSVSAGDKVTMSCKSSQSLLNSRNQKNYLAWYQQKPWQPPKLLIYGASTRESGVPDRFTGSGSGTDFTLTISSVQAEDLAVYYCQNDYSYPFTFGTGTKLEIKR
EC50 [5]: 3.3 nM
EC50 [6]: 0.21 nM

B4: chHE39, human chimeric antibody derived from HE39 antibody (antibody, V domains shown)
VH: EVQLQQSGPELMKPGASVKMSCKASGYIFTDYYMNWVKQSHGKSLEWIGRVNPNNGGTSYSQKFKDKATLTVDKSLNTAYMQVNSLTSEDSAVYYCARIYYGGSDWGQGTTLTVSS
VL: EIVMTQTPLSLSVTIGQPASISCKSSQSLLYTTGKTYLNWLQQRPGQAPKHLMYQVSKLVPGIPDRFSGSGSETDFTLKISRVEAEDLGVYYCLQGTYYPHTFGSGTKLEIKR
notes: Mouse HE39 variable regions linked to human IgG1 constant regions
EC50 [5]: 5.3 nM
EC50 [6]: 0.42 nM
